Legend:
Raji-luciferase cells = assay: Raji-luciferase lymphoma, tail vein inoculation, bone marrow growth by IVIS imaging; format: in vivo, human; details: mAb 600 μg/mouse every other day, IVIS
Procedure: Tumorigenicity. Luciferase-labelled CAG myeloma (5×10^6) or Raji lymphoma (1×10^6) cells were injected into the tail vein of NOD/SCID mice (n=5). Mice were treated with PG545 (20 mg/kg, once weekly), mAb 9E8 (600 μg/mouse) every other day starting one day following cell inoculation and tumor growth was examined by IVIS imaging. At termination, mice were sacrificed, the backbones were excised, fixed in formalin and following de-calcification with 10% EDTA solution were embedded in paraffin and subjected to histological and immunohistochemical analyses essentially as described (Weissmann et al, 2016, Proc Natl Acad Sci USA 113:704-709). Dose of 25-30 mg/kg (i.e., 500-600 μg mAb/mouse) is typical in cancer restraining experiments (Van Looy T, et al. 2015, Transl Oncol 8(2):112-118).
IVIS imaging. Bioluminescent imaging of the luciferase-expressing tumors was performed with a highly sensitive, cooled charge coupled device (CCD) camera mounted in a light-tight specimen box (IVIS; Xenogen Corp., Waltham, Mass.). Briefly, mice were injected intraperitoneally with D-luciferin substrate at 150 mg/kg, anesthetized and placed onto a stage inside the light-tight camera box, with continuous exposure to isoflurane (EZAnesthesia, Palmer, Pa.). Light emitted from the bioluminescent cells was detected by the IVIS camera system with images quantified for tumor burden using a log-scale color range set at 5×10^4 to 1×10^7 and measurement of total photon counts per second (PPS) using Living Image software (Xenogen) (Weissmann et al, 2016, Proc Natl Acad Sci USA 113:704-709).
FIG. 4A. Raji-luciferase cells (1×10^6) were injected into the tail vein of NOD/SCID mice (n=5). Mice were treated with PG545 (20 mg/kg once a week) starting one day after cell inoculation and IVIS imaging was applied to quantify tumor load. […] NOD/SCID mice (n=5) were inoculated (iv) with Raji-luciferase cells and mice were treated with mAb 9E8 (600 μg/mouse every other day) (FIG. 4C) and tumor growth was evaluated by IVIS imaging (left panels). Quantification of luciferase signals is shown graphically in the right lower panel.

lymphoma cells = assay: Lymphoma cell death, propidium iodide FACS; format: cell-based; details: 50 μg/ml, 24 h
Procedure: FIG. 6A. CAG myeloma. NOD/SCID mice (n=5) were inoculated (iv) with CAG-luciferase cells (5×10^6) and mice were treated with mAb 9E8 (600 μg/mouse every other day). Tumor growth was evaluated by IVIS imaging (left panels). Quantification of luciferase signals is shown graphically in the right panel. Note 2-3 fold decrease in tumor growth by the heparanase-neutralizing mAbs. FIG. 6B. Bone marrow was harvested from C57Bl/6 mice, cells were collected by centrifugation and heparanase activity was determined as described under ‘Materials and Methods’ (left panel). Corresponding bones were fixed in formalin and following de-calcification were subjected to immunostaining applying anti-heparanase antibody (right panel). FIG. 6C. The indicated cell line (0.25×10^6) was treated with antibodies 1453or 9E8 (50 μg/ml) for 24 h. Cells were then washed once with FACS buffer (PBS containing 2% FCS), incubated with Propidium Iodide (PI; 1 μg/ml) for 10 min and analyzed using FACS Cyan ADP system (Beckman Coulter, Inc). PI-positivity indicates a disturbed membrane and cell death.

[1] = system: LM2-4 human breast carcinoma cells; assay: LM2-4 breast carcinoma experimental lung metastasis; format: in vivo; details: mAb 500 μg/mouse with the cells, lungs after 18 days
Procedure: Experimental metastasis. B16 BL6 mouse melanoma (2×10^5) or LM2-4 human breast cancer cells (2×10^6) were injected into the tail vein of C57/BL mice or SCID/Beige mice (respectively) together with the indicated compound, essentially as described (Hostettler N, et al. 2007, FASEB J 21(13):3562-3572). Lungs were harvested 18 days thereafter and metastases occurrence was determined following fixation by gross inspection and histology (Weissmann et al, 2016, Proc Natl Acad Sci USA 113:704-709).
FIG. 5A. Cell invasion. Cal-27 tongue carcinoma (left panels) and U87 glioma cells (right panels) (2×10^5) were plated onto Matrigel-coated filters in the presence of mouse IgM/IgG (upper panels), mAb 9E8 (2 μg; second left and middle panels). Invading cells adhering to the lower side of the membrane were visualized after 6 h. The number of invading cells per high power field is shown graphically at the lower panels. FIG. 5B, FIG. 5C. Tumor metastasis. FIG. 5B Mouse B16 melanoma cells (2×10^5) were inoculated into the tail vein of C57Bl/6 mice (n=7) together with rabbit IgG (300 μg; Con), Ab #1453 (250 μg), mAb 9E8 (500 μg) or SST0001 (400 μg). Lungs were harvested after 18 days, photographed (lower panel) and the number of metastatic lesions was counted (upper panel; p=0.001, 0.0006, 0.0001 for Con vs. Ab 1453, Con vs. mAb 9E8 and Con vs. SST0001, respectively). […]

U87 glioma cells = assay: Matrigel cell invasion, U87 glioma cells; format: cell-based, human; details: mAb 2 μg, 6 h
Procedure: Cell invasion. Matrigel invasion assay was performed using modified Boyden chambers with polycarbonate Nucleopore membrane (Corning, Corning, N.Y.), essentially as described (17). Briefly, filters (6.5 mm in diameter, 8 μm pore-size) were coated with Matrigel (30 μl); Cells (2×10^5) in 100 μl of serum-free medium were seeded in triplicate on the upper part of each chamber, and the lower compartment was filled with 600 μl medium supplemented with 10% FCS. After incubation for 5 h at 37° C. in a 5% CO2 incubator, non-invading cells on the upper surface of the filter were wiped with a cotton swab, and migrated cells on the lower surface of the filter were fixed, stained with 0.5% crystal violet (Sigma) and counted by examination of at least seven microscopic fields.
FIG. 5A. Cell invasion. Cal-27 tongue carcinoma (left panels) and U87 glioma cells (right panels) (2×10^5) were plated onto Matrigel-coated filters in the presence of mouse IgM/IgG (upper panels), mAb 9E8 (2 μg; second left and middle panels). Invading cells adhering to the lower side of the membrane were visualized after 6 h. […] Lungs were harvested after 18 days, photographed (lower panel) and the number of metastatic lesions was counted (upper panel; p=0.001, 0.0006, 0.0001 for Con vs. Ab 1453, Con vs. mAb 9E8 and Con vs. SST0001, respectively). […]

B1: mAb 9E8: monoclonal IgM raised against KKDC peptide (Lys158-Asn171) of heparanase; VH SEQ ID NO: 7, VL SEQ ID NO: 8 (antibody)
VH: EVKLLESGGGLVQPGGSLKLSCAASGFDFSRYWMSWVRQAPGKGLEWIGEINPDSSTINYTPSLKDKFIISRDNAKNTLYLQMSKVRSEDTALYYCARRGYEGNYAMDYWGQGTSVTVSSESQSFPNVFPLVSCESPLSDKNLVAMGCLAR
VL: DIVMTQAAPSVPVTPGESVSISCRSSKSLLHSNGNTYLYWFLQRPGQSPQLLIYRMSNLASGVPDRFSGSGSGTAFTLRISRVEAEDVGVYYCMQHLEYPFTFGSGTKLEIKRADAAPTVSIFPPSSEQLTSGGASVVCFL
modifications: IgM constant regions
**Q.** With B1 as the molecule, how does the “decrease of Raji cell growth (luciferase signal)” value (Raji-luciferase cells) read?
**A.** The value was 2-3 fold.

**Q.** And the “lymphoma cell death (PI-positivity)” value (lymphoma cells)?
**A.** The value was “do not elicit lymphoma cell death”.

**Q.** And the experimental lung metastasis [1]?
**A.** The experimental lung metastasis was “inhibitory effect”.

**Q.** What about the cell invasion (U87 glioma cells) of the same molecule?
**A.** The cell invasion was “inhibitory effect”.

— US11161912B2, “Heparanase-neutralizing monoclonal antibodies” (Technion Research & Development Foundation Limited, priority 2015, dated 2021)
